Measurements reported in article PMC11325815 (Journal of Hematology & Oncology, 2024).

Molecular target: recombinant extracellular domain (ECD) of human IL1RAP (S21-E359) (Homo sapiens, UniProt Q9NPH3)
Test: SPR

Chain of recombinant extracellular domain (ECD) of human IL1RAP (S21-E359) (Q9NPH3 21-359): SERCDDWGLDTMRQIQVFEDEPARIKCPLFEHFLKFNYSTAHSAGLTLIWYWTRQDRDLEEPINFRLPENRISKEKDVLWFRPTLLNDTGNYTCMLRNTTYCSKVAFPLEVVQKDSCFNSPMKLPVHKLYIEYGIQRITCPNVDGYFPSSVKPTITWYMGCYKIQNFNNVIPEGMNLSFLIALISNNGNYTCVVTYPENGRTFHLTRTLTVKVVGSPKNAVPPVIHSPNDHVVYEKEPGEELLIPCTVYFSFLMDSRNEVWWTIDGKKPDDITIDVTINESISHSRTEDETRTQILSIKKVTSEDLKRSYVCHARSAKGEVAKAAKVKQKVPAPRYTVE

Kd: 2.2 nM
B1: anti-IL1RAP-24 Fab (Fab, V domains shown)
VH: QVQLQQSGPELVRPGVSVKISCKGSGYTFTDYAMHWVKQSHGKGLEWIGIISTYSGNTKFHQKFKGKATMTVDKSSSTAYMELARLTSEDSAIYYCARQGTWYFDVWGAGTTVTVSS
VL: QIVLTQSPAIMSASPGEKVTMTCSASSTIIYIHWYQQKPGTSPKGWIYDTSKLASGVPARFSGSGSGTSYSLTISSMEAEDAATYYCHQRTSYPWTFGGGTKLEIK
